According to the MegaScale stability set (Tsuboyama et al. 2023):

B1: HEEH_KT_rd6_0790 (parent)
chain: SEEEEEEWRRAKERGEEIIILGILWKPNDEEAERRIKEALRRV
B2: r16_88_TrROS_Hall (parent)
chain: EVIELKIKFKTPEQREKLKEIAKKLNAEVVEEKDGEVIIRFKTPEQAERALKEAEKLGAEVEL

Variants of: B1
Assay: folding stability dG (cDNA display proteolysis); higher = more stable
Details: PBS, room temperature

Folding stability dG [kcal/mol] of substitutions, site by site:
R42: D 1.56, A 2.11, K 2.14, W 1.74, F 1.77, M 1.98, G 1.88, Q 2.09, E 1.75, P 1.33, N 1.84, L 2.09, H 1.79, V 1.95, Y 1.77, C 1.95, S 1.92, I 2, T 1.83
L40: C 1.55, D 0.532, M 1.76, N 0.57, I 1.97, A 1.12, Q 1, W 1.45, T 0.781, V 1.25, G 0.586, R 1.2, P 0.583, S 0.788, E 0.814, H 1.26, F 1.78, K 1.06, Y 1.1
A39: V 1.6, Y 1.56, W 1.7
R41: H 1.88, D 1.79, F 1.76, P 0.888, I 1.76, Y 1.74, M 1.9, E 1.89, G 1.74, V 1.75, Q 1.92, L 2.07, S 1.94, N 1.97, T 1.81, K 2.06, W 1.67, C 2.43, A 2.07
V43: M 2.48, E 2.08, R 2.75, H 2.45, Y 2.38, C 2.36, P 1.84, A 2.38, Q 2.26, F 2.5, D 1.69, T 1.88, K 2.59, G 1.84, S 2.21, L 2.79, I 2.31, W 2.45, N 1.86

Variants of: B2
Assay: as above
Details: PBS, room temperature

Folding stability dG [kcal/mol] of substitutions, site by site:
V2: I 4.15, K 4.33, R 4.21, C 4.51, F 4.68, H 4.34, T 4.19, W 4.56, Y 4.53, P 4.16, S 4.13, G 4.48, E 4.13, D 4.1, L 4.27, A 4.3, Q 4.45, N 4.22, M 4.45
E1: Y 4.34, H 4.08, P 4.22, Q 4.25, A 4.45, G 4.57, F 4.33, R 3.94, V 4.06, D 4.2, I 4.29, W 4.18, K 4, T 4.26, C 4.27, M 4.3, S 4.32, N 4.33, L 4.31
L5: H 4.34, M 4.49, G 4.02, Q 4.28, I 4.26, C 4.29, E 3.72, F 4.91, K 4.38, N 3.85, A 4.37, D 2, P 2.55
E4: S 4.54, D 4.4, F 4.76, V 4.58, W 4.66, Y 4.64, P 4.4, K 4.51, Q 4.79, C 4.76, M 4.72, A 4.69, R 4.58, N 4.35, I 4.54, H 4.42, G 4.3, L 4.56
I3: M 4.63, T 4.67, V 4.58, W 4.71, R 4.61, A 4.54, N 4.76, E 4.3, K 4.76, Y 4.7, C 4.46, F 4.97, P 4.46, G 4.47, L 4.63, Q 4.76, S 4.71, D 4.52, H 4.7
